{
  "source": "patent US8034904B2",
  "about": "“Anti-IGF-I receptor antibody” (Immunogen Inc., priority 2002, dated 2011)",
  "molecules": {"B1": {"name": "EM164: murine anti-IGF-I receptor monoclonal antibody, IgG1 with kappa light chain, hybridoma ATCC PTA-4457; heavy SEQ ID NO:7, light SEQ ID NO:8 (antibody)", "heavy": "QVQLQQSGAELVKPGASVKLSCKASGYTFTSYWMHWVKQRPGQGLEWIGEINPSNGRTNYNEKFKRKATLTVDKSSSTAYMQLSSLTSEDSAVYYFARGRPDYYGSSKWYFDVWGAGTTVTVSS", "light": "DVLMTQTPLSLPVSLGDQASISCRSSQSIVHSNVNTYLEWYLQKPGQSPKLLIYKVSNRFSGVPDRFSGSGSGTDFTLRISRVEAEDLGIYYCFQGSHVPPTFGGGTKLEIKR", "modifications": "antibody heavy chain; antibody light chain"}},
  "key": {"[1]": {"target": "T1, human insulin receptor (Homo sapiens, UniProt P06213)", "T1 construct": "expressed in transfected cells; host or cells: 3T3-like cells of IGF-I receptor deficient mice", "assay": "FACS binding to cells overexpressing human insulin receptor", "settings": "EM164 50-100 nM", "protocol": "Incubation of EM164 antibody (50-100 nM) in 100 μL cold FACS buffer (1 mg/mL BSA in Dulbecco's MEM medium) was performed using cells overexpressing IGF-I receptor and using cells overexpressing insulin receptor (2×10^5 cells/mL) in a round-bottom 96-well plate for 1 h. The cells were pelleted by centrifugation and washed with cold FACS buffer by gentle flicking, followed by incubation with goat-anti-mouse-IgG-antibody-FITC conjugate (100 μL; 10 μg/mL in FACS buffer) on ice for 1 h. The cells were pelleted, washed, and resuspended in 120 μL of 1% formaldehyde solution in PBS. The plate was analyzed using a FACSCalibur reader (BD Biosciences)."}, "[2]": {"system": "Akt and Erk1/2", "assay": "IGF-I receptor signaling in MCF-7 cells (Western blots, phospho-Akt and phospho-Erk1/2)", "format": "cell-based, human"}, "[3]": {"target": "T2, IGF-I receptor on MCF-7 cells (Homo sapiens, UniProt P08069)", "T2 construct": "human breast cancer MCF-7 cells, which expressed IGF-I receptor; endogenous in cells; host or cells: MCF-7 human breast cancer cells", "assay": "Inhibition of binding of biotinylated IGF-I to MCF-7 cells", "format": "cell-based", "settings": "5 μg/mL antibody, 2 h; 50 ng/mL biotinylated IGF-I, 20 min, 37° C.", "protocol": "The binding of IGF-I to human breast cancer MCF-7 cells was inhibited by EM164 antibody (FIG. 3). […] The cells were then washed twice with serum-free medium to remove unbound biotin-IGF-I, and were then lysed in 50 mM HEPES, pH 7.4, containing 1% NP-40 and protease inhibitors. An Immulon-2HB ELISA plate was coated with a mouse monoclonal anti-IGF-I receptor beta chain antibody and was used to capture the IGF-I receptor and bound biotin-IGF-I from the lysate. […] The wells were washed, incubated with streptavidin-horseradish peroxidase conjugate, washed again, and then detected using ABTS/H2O2 substrate."}, "[4]": {"target": "T3, IGF-I receptor of MCF-7 cells (Homo sapiens, UniProt P08069)", "T3 construct": "human breast cancer MCF-7 cells, which expressed IGF-I receptor; endogenous in cells; host or cells: MCF-7 human breast cancer cells", "assay": "Immunoprecipitation of IGF-I receptor from MCF-7 lysate", "format": "binding", "settings": "MCF-7 lysate (human)", "from_the_text": "A Western blot of the EM164 antibody immunoprecipitate was detected using a rabbit polyclonal anti-IGF-I receptor beta chain (C-terminus) antibody (Santa Cruz Biotechnology) and a goat-anti-rabbit-IgG-antibody-horseradish peroxidase conjugate, followed by washes and enhanced chemiluminescence (ECL) detection."}, "[5]": {"target": "T4, IGF-I receptor (Homo sapiens, UniProt P08069)", "T4 construct": "human breast cancer MCF-7 cells, which expressed IGF-I receptor; endogenous in cells; host or cells: MCF-7 human breast cancer cells", "assay": "Downregulation of IGF-I receptor in MCF-7 cells (Western blot)", "format": "cell-based", "protocol": "Therefore, the inhibition of binding of IGF-I and the displacement of bound IGF-I by EM164 antibody at both 4° C. and 37° C. in these short-term experiments may not be explained by the down-regulation of the receptor due to the binding of the EM164 antibody. The mechanism for the potent inhibition of the binding of IGF-I to IGF-I receptor and for the displacement of the pre-bound IGF-I by EM164 antibody is likely to be competition for binding, either through sharing of the binding site or through steric occlusion or through allosteric effects."}, "[6]": {"target": "biotinylated human IGF-I receptor", "assay": "ELISA binding titration (Kd) with biotinylated IGF-I receptor", "protocol": "The wells were next washed with TBS-T buffer and incubated with goat-anti-mouse-IgGH+L-antibody-horseradish peroxidase conjugate (100 μL; 0.5 μg/mL in blocking buffer), followed by washes and detection using ABTS/H2O2 substrate at 405 nm. The value of Kd was estimated by non-linear regression for one-site binding.\nA similar binding titration was carried out using the Fab fragment of EM164 antibody, prepared by papain digestion of the antibody as described by E. Harlow and D. Lane (“Using Antibodies: A Laboratory Manual”; 1999, Cold Spring Harbor Laboratory Press, New York)."}, "[7]": {"system": "truncated IGF-I receptor alpha chain construct (residues 1-468 fused to 704-719, myc tag)", "assay": "Binding to truncated IGF-I receptor alpha chain construct", "parameters": "species or system human", "from_the_text": "The binding domain of EM164 antibody was further characterized using a truncated alpha chain construct, which comprised the cysteine rich domain flanked by L1 and L2 domains (residues 1-468) fused with the 16-mer-C-terminus piece (residues 704-719) and which was terminated by a C-terminus epitope tag. This smaller IGF-I receptor, which lacked residues 469-703, has been reported to bind IGF-I, although less tightly compared to the native full-length IGF-I receptor (Molina, L. et al., 2000, FEBS Letters, 467, 226-230; Kristensen, C. et al., 1999, J. Biol. Chem., 274, 37251-37356). Thus, a truncated IGF-I receptor alpha chain construct was prepared comprising residues 1-468 fused to the C-terminus piece that is residues 704-719 and flanked by a C-terminus myc epitope tag. A stable cell line which expressed this construct, and which also expresses the construct transiently in human embryonic kidney 293T cells, was constructed."}, "[8]": {"system": "RD (rhabdomyocarcoma) cells", "assay": "Growth and survival of RD cells (MTT assay)", "format": "cell-based, human", "protocol": "Several human tumor cell lines were tested in serum-free conditions for their growth and survival response to IGF-I. These cell lines were treated with EM164 antibody in the presence of IGF-I, IGF-II, or serum, and their growth and survival responses were measured using an MTT assay after 2-4 days. Approximately 1500 cells were plated in a 96-well plate in regular medium with serum, which was replaced with serum-free medium the following day (either serum-free RPMI medium supplemented with transferrin and BSA, or phenol-red free medium as specified by Dufourny, B. et al., 1997, J. Biol. Chem., 272, 31163-31171). After one day of growth in serum-free medium, the cells were incubated with about 75 μL of 10 μg/mL antibody for 30 min.-3 h, followed by the addition of 25 μL of IGF-I (or IGF-II or serum) solution to obtain a final concentration of 10 ng/mL IGF-I, or 20 ng/mL IGF-II, or 0.04-10% serum. In some experiments, the cells were stimulated first with IGF-I for 15 min before the addition of EM164 antibody, or both IGF-I and EM164 antibody were added together. The cells were then allowed to grow for another 2-3 days. A solution of MTT (3-(4,5)-dimethylthiazol-2-yl)-2,5-diphenyltetrazolium bromide; 25 μL of a 5 mg/mL solution in PBS) was then added and the cells were returned to the incubator for 2-3 h. The medium was then removed and replaced by 100 μL DMSO, mixed, and the absorbance of the plate was measured at 545 nm."}},
  "data": [
    {"molecule": "B1", "values": [
      {"measurement": "fluorescence shift (FACS)", "setting": "[1]", "value": "insignificant shift"},
      {"measurement": "intracellular IGF-I receptor signaling", "setting": "[2]", "value": "almost completely inhibited"},
      {"measurement": "activation of Akt and Erk1/2", "setting": "[2]; IGF-I stimulated", "value": "inhibited in a dose-dependent manner"},
      {"measurement": "inhibition of IGF-I binding to MCF-7 cells", "setting": "[3]", "value": "essentially quantitative"},
      {"measurement": "immunoprecipitation of IGF-I receptor", "setting": "[4]", "value": "can be used for immunoprecipitation of IGF-I receptor"},
      {"measurement": "downregulation of the IGF-I receptor", "setting": "[5]; 4° C. for 2 h (or 37° C. for 30 min)", "value": "did not result in a significant downregulation"},
      {"measurement": "downregulation of the IGF-I receptor", "setting": "[5]; 37° C. for 2 h", "value": 25, "unit": "%"},
      {"measurement": "Kd", "setting": "[6]; ELISA titration, non-linear regression for one-site binding, read-out: dissociation constant (Kd)", "value": 0.1, "unit": "nM"},
      {"measurement": "koff rate", "setting": "[6]; strong binding signals after prolonged 1-2 day washes", "value": "very slow"},
      {"measurement": "binding to truncated IGF-I receptor alpha chain construct", "setting": "[7]", "value": "strong binding"},
      {"measurement": "Inhibition by EM164 antibody of IGF-I-stimulated growth in serum-free medium", "setting": "[8]; 5-10 μg/mL EM164, 10 ng/mL IGF-I", "value": "85-100%"},
      {"measurement": "% Inhibition by EM164 antibody of Growth/survival of cells in 1.25-10% serum", "setting": "[8]; 5-10 μg/mL EM164, MTT or colony formation assay", "value": "Yes"}
    ]}
  ]
}
